From a protein production outcome set (Wang et al. 2014)

Assay: label from the status in PepcDB records

Sequence | protein production
MPYAIDFGTTNTVIARWNEATRQGNLIDLPSLSHPLGDSGPLVPSLLYVENAALGQVAIAREVLDRGRDISTDTRFFKNFKRGIGVAVQGFLPQLDGHTLSLETLGQWYLDKLIRILTEQEGQGPDCLALTVPVDSFESYRHWLSHTCRSWGVEEVRLVDEPTAAALGYGVGDASQILVLDFGGGTVDFSWVQLGDRGQKGRSGFLLKWGGILGGSKAEEKSALAKVLAKAGANLGGSDIDYWISEYFTEAQGLQVSPWIRRLAERLKIALGEAEEATEVYFDDQALESYEFQLRRSDLTEILQQRQFFERLTALWEQVQQTAQRRGLTPANLDAVLVVGGTSQLPMVQDWINAQFPAGKIRNQQPFGAIALGALQIYQGREVQDYLYHSYGVRYWNRRKNSHNWHPIIKNGQTYPMAEPIELTLGASLDNQPSIELIVGELGSSIGATEVYFDGNQLITRVLENQAFTVQPLNDRNGARQIAQLSPPGVPGGDRIKVKFWVDDQRYLRLTVEDLLQQKLLLENQVVAQLRLEHHHHHH | failed
MDIGRKRDVFLIILPALCAFALALIPTFRYTVPLTWDVYYHIHNATLYMGRGIVFWDPLTSAPHGRPLYYPPLFHIMLLFLSKITGLGFFTVSRFMQPVFAFLILLSFSYVSGKLYGPLAGFLTGMFLFSSLFFMRMMFPIPESLAMISIPLFVYGYYRSMECCSRLYPVLTGLLLGLMLMTHILSASIILAVVTLSTIVLYIGKYDIRPWNLLIILGSGLLLASVWYAPLIVKYGFVFRSPATSSLPLEGYITHLGVLLTILSLAGIVHAAGRREKKDVIMAVWTVFVLALTAAYLLGLKVLSDRILYFALFPMATLSANLFNSIRINNGKWSFYAIILLISLYCIYDGYSLASSIKLEVSDSELDIAEWFRYNGDHATVVVSDYHIQPAIVAVSGQPVSAGGYAPGTIRSINVEKYISSFNYTKHDIMRDRVGYIILDNEERTPPYSRLVYRNRDFSVYRVNV | failed
TERMDKVGDALEEVLSKALSQRTITVGVYEAAKLLNVDPDNVVLCLLAADEDDDRDVALQIHFTLIQAFCCENDINILRVSNPGRLAELLLLETDAGPAASEGAEQPPDLHCVLVTNPHSSQWKDPALSQLICFCRESRYMDQWVPVINLPER | failed
MINKTLTVTLTSIAALAGLSGLANAQEYTNSTHTTSQQSNTYNSQVEQETNLGLTNKDIVKVKDGDTLYQIALSHHLSLEQLYNFNPGVTALIHPGDLIAVSEKGAAKLENKEINYAQTYAETTAFNQSDVVAQSVSASTTNVTGYNIVPTSAPTNTMHDSYHSSVNTPVSYQHVTTANQGNRYSFGNCTYYAFDRRQQLGRSIGSYWGNANNWAYSAKNAGLTVDNRPEVGAIFQTTAGYYGHVGVVEHVNQDGSVYVSEMNWNGHYNRVTNRTITNTSSYNFIH | failed
MQFQDVRLMRVVVCRRLGPAKGQRRWHPLDLGTTGCFENLGAQRPTYRMRAIRMLECAMPNRLVRSLQRWRPFGLPPHRWRLAPWYWRGLQVTLEPGSAIAWIVRLTGGFEETEIDIAAALYSALYPDRCILDVGANVGIHSLAWARLAPVVALEPAPGTHSRLEANVAANGLQDRIRTLRTAAGDAVGEVDFFVAADSAFSSLNDTGRIRIRERTRVPCTTLDALAAELPLPVGLLKIDVEGLERAVIAGAAELLRRDRPVLLVEIYGGAASNPDPERTIADIRAYGYEPFVYADDAGLQPYQRHRDDRYCYFFIPSRKG | failed
MSSDVQKGDNLETPGARDLLLQTASNIMREGDVVDISLSELSLRSGLNSALVKYYFGNKAGLLKALLDRDMENIVKSVDALLAKDDMSPEAKLRRHISKCIDTYYDYPYLNRLLMRLVRDSDEAEAKRIADQYLLPLHRAYNRFIGEGVKAGVFRPINPQLFYFTVTGAADRFFSARLVLKHCFDQDTLTEQLRDSYREHTVDFIMAGILAH | not failed
MMSNALRRFDPAWFEKYDGIIKHERLGTHVGKPNSSHNYAIEKCVNLMNQGQSIVHALFKQDDVMKREYHIPLNTSIDASRYLLRQGIAFHGHDESEESANKGNFLELVKYTGEQNDATEQMAVVFRFVDKSGTVKERFIEVVHVKETSSASVKSAIDDLFAKYGLSLKTVRGQGYDGASIMKVAKGVAKSFDLLSLLLKIIVVYK | failed
MRNTDDYIIFYHLVEQGSFSSAARHMELTKSVVSKRIAKLEQELGVQLLYRTTRTLTLTEAGQSFFVHAKAVYKAVATAEESIVGLGKNLSGNIKITVPTISGELILPGVISEFNDKYPDINIDMELDNRFVDIVNERFDLAIRTGMLPDSSLIARKLVDANWVVCASPKYLAKHGIPKQPIELTKHNCLVYSYQETGAREWAFKAGDKMYQVTVDGNLCTNNSSALRNVALLGQGVIYVPRVLVYEDLKQGSLIQLFKEETAKCLGIYAVYPYTRQQPEKIKIFIDHLYNSFQSQNHRF | failed
MSDAVEEAEARAVEPVGAKQRDAFISYSQSKNAPLAKQLQRGLERLAVSRFRPMRMSVFRDVTSLPANHDLWQSIQRELARSRYFILLASPEAAASPWVAREVDYWLRERDTEHLLIAVASGEIVWDDRAGDFDWRKTTSLPRNLAGHFTAAPLWVDLREIGERSHHSMRYPPFRAAVATLASPLHGRPKEELEHDDFRQLRFVKRLSWSGVALLVALLVLAVYGFFDASRQREAALSQARTSASQALAARSGQLLGTSPNQAAQYALYAEETRSTPESRRALAQAVTAAPYARRRLRADADSVTDMQGASRPAATDVVLSGDGTTAAYRSVFDDDRAVRLYDVPSARQSRVVRAEGTPRALSRDGRVLAMEVYLNRVQLWDTRSGRLLSTMATGHTENLPHVGHGLHALALSPDGRWVAASHYTPEGEAFAVVWRASDGREITRVPVSDARVGLGFSADGSRLTLVDQDRREVREFRTDSARWEAARSLPGMPGSTAEALRYSEVLLFDGARKALTRTSERAEVWDLEQRRRIAVRSLGPYEDMTVADDKGIFLLGGQDGTVRLYDAALRPGTTLGRLTRPASTIAMSADGTQVVVASYGGELNLFTTGVRRGQQVAFDEKDFTFGDLTPDGRMAVHRSEGRTEFWDPATGRRLGVIPYANLSVNLEDTAYTLSGDKRYVGMQSVEGFEDEGRFDVWDLRTGRRTDCGTAVGGSSFSPIRRPGLSFLPGDRYVVGEWNGAVELLDTRTCTRSTVTEDSGRFALSGDRRTLVLLNDDGVDTWRWDGDHAFARAARTTLPSEAHPVDMSVDHEGRQAAFSDRESHVYVVRLDSGERVRATGYLPDKTDAVAFSRDGRLLFQGFMTESTRGVRVLDAGSGDQLDIWTTDPPTGSVQPNEGMQVVPGPADDILTLGPDHKVVRRTVGVGAWHDLLCGLVSQPLPARERDRYLKDLDVEDPCR | failed
MLRIFSAKNEVDSKYIFMLAFMLALFSSGVPPEIVILHLSREDSFEPYTKVFKKIRNLVSGYRYKFSSAITYSIKNLNIRFLKEFLIRLSQAVTFGDDMIEFLSREIDFTLSEYNAYSARLIESMNNFLTIYATLNSSLTFLVADITILSLIYSGGTTLIIQLTILSLALLGNLTLVMYLLYRPENYIRYNVIDKFVLTFTISLSIIFSVIYTSYIVLMGTGIVLLGIGLRYRLYENKINRIERHFLLFIRYFSRNYAIVSNLKESLMAVLRGDLGDVRPLIRRSLNRLNFGIDKEKIFRLIGDESGSILVSMLSKVLYETISMGGNAMIIGEILSKIGDSVLNIRSRKEQNGRAFETSIYALQTASAGVSAALISIVGMLNNIFSTQNVSTVFSFSEVNIDIISRIFLIILLILSFANGIAITLAYGKSLYVSLYFIGILIILSSISYHIVLILTGNIFKELASPSGLLQTT | failed
MSVKGFFFILVFFLVAIMGFLIYISETVVVKYLYIAEALMLLLMLYLILFYRKIVKPMNTIGSGMELLREQDFSSRLSHVGQQEADRVVNVFNRMMEQLKNERLRLREQNHFLDLMINASPMGVIIMTLDEEVSQLNPMAMKMMGVRPEEAEGRKLSEIDSPLALELAAIPNGETSTVRLNDSSIYKCTHSSFVDRGFQHPFYLMEGLTDEVMKAEKKAYEKVIRMIAHEVNNTTAGITSTLDTVEQALSESEGMEDICDVMRVCTERCFSMSHFITRFADVVKIPEPRFTPTNLNDLAFTCKRFMEGMCNDRNIRLQLICDESLDDVKLDASLFEQVLVNIIKNAAESIGQDGQIIIRTSLPTAIEVVDNGPGISKETEAKLFSPFFSTKPNGQGIGLIFIREVLSRHGCTFSLRTYADGLTRFRILFP | failed
VNEIVVNPNATLDWQLALRQAAGKTDLARDMLQMLLDFLPEVRNKVEEQLVGENPEGLVDLIHKLHGSCGYSGVPRMKNLCQLIEQQLRSGTKEEDLEPELLELLDEMDNVAREASKILG | not failed
MKICAVVVTYNRKDLLVECLEALRRQTGPLDAIYIIDNASTDGTPHLLMEGGYIDDPDGSVKNLPDHHGRSLKIVYVRLNENTGGAGGFYKGVRRAFHDEYDWIWLMDDDVEPEEYTLEKLLKASERIPEDVSAVAPVRFFQGSLFISETKTFNFRNPLKHFTYDFITDDDLKEEYFKISAISFEGLLIKREAIERIGFPDKSLFIIADDTDYAIRLRDYGPIYMVSGARLIKKVAAEPDFNWKGFYHLRNVIYLDRKYGENILVRYLRPLRTLIIVTYQCLKYKPSGFKYLLKAFWEGYTLKRGKTVKPGEFLEHHHHHH | not failed
MITFIIHSVSAETASESLLSKLAEAKDYLRIQPSVSSRILKKHLANIGQLTINDQLSWHQNLLRASIALNDLNQVEKTVKVMLSYPELEKKTDKFVSLLSSLGIFLRRTGHPNESILLFNCGLEQPIKNGKQKISLLISKGSSLSSLNKYSQAKTTYAQALQLAKQQNSEVLISAIYNTLGIMALKQGNYTLAKEYLVNALQLSQKISRRSGQIVAGLQLLRLSILSDEPMLYDRLHYRISRLTLVSESEVRHAYLFWLEKAHKASKGNKLSAQEQDELLSKLDQIKPISVSLYNQLVETLAEPMGITSLALINESSEYQGDLLNNIHQCKNIE | failed
VQPLATQCFQLSNMFNPQTEEEVGWDTEIKDDVIEECNKHGGVIHIYVDKNSAQGNVYVKCPSIAAAIAAVNALHGRWFAGKMITAAYVPLPTYHNLFPDSMTATQLLVPSRR | not failed
MSLSNSKSTTTKDTVATLPNGASSLTETYGLWSINCGIQEGKKVCFMHRQEVNDQNRVVVAMSVVLNADGVVSGNLTVPFGILVSKPVRLQVDEGKAVIETGIRTCVPAGCIVPIVFDKNYVAALRAGKHLKLAMTIAAPGEPPLNDLFVQLNGFSNALNRLIALQKEGHHHHHH | not failed
MTRNGHERAKPLRPGDPTELGAYRIVGRLGRGGMGTVYLGKDTAERLVAIKLIRPDLSEDPAFRQRFAREVAAARRVARFSTAAVLDAQLEGDPLFIVSEYVAGPNLAEAIQADGPMYGGTLESLAMGVAAALTAIHGAGVIHRDLKPANVLLSSVGPKVIDFGIARALDDDTAVTRSSQLMGTPAYLAPELIAGEPPTPMSDIFSWGCLVAYAGTGRAPFDAPTVPAVLHQIVAGQPNLSGLDPALRELVESALDKFPDNRPTAQQLLSRLVGQEEMSLDAVHETVVRSWTPPATSRPEAVPSGPNPAAVPAQVGAAAAAPPTQPGTTPPGGQPSATPSAGHPGATPPAGQPAAAPPFPEHSPQTPPWAAPTPPGGNGTEQKTRGTRFSPAIAIAGGSAVALLAGAVIGGLVLFRSPEVPEGMQVYADDFTHQDGWAGYDFDPENTFSWSGYYQGGYALSADGDTRTSTVSVAPPAGLPEQVRVSATTQVVSGPDYGTYGLHCFYNDDGDNVTYYSATVRVDGSAAQIRRHGGEQGSTHLEEVTAKPVSGFLTPSRDAEEAPVNTFDFTCELDPEADTVTLNLWLNGEHVLEAVDTNPLPYDGEDAPQAGMLAGRGIGGGDNIVVVFDDFAVYQLDGGQRERS | failed
MKIIRTRQRPFMVIVDVVLTVLAWVGLLYLLVRGLIPLLDSHEGPRIEAGMLDALTTLQFYAWVAVLNAVLLISWARYRQRRNKSYPPRLPAPVVDDKRLSETFKLNDATFAQMRQPGTMIVHNDEEGGISHVTTQFYRILPEDQQHPPLRVEPPPRVIHLRSEGDEGKKTGED | failed
MSLDRPRCCLRGKECSINRFQQVESRWGYSGTSDRIRFSVNKRIFVVGFGLYGSIHGPTDYQVNIQIIHTDSNTVLGQNDTGFSCDGSASTFRVMFKEPVEVLPNVNYTACATLKGPDSHYGTKGMRKVTHESPTTGAKTCFTFCYAAGNNNGTSVEDGQIPEVIFYTEGHHHHHH | not failed
